Experimental data reported in patent US20190336574A1 (TRUSTEES OF PRINCETON UNIVERSITY, published 2019).
Changes are numbered by the printed parent chain.

Columns and labels:
[1] = target: T1, HA-SND1 R255E, full-length human (human, UniProt Q7KZF4 1-910); assay: co-IP (anti-Myc) from HEK293T lysates, western blot
T1 construct: Full-length, HA-tagged
T1 sequence: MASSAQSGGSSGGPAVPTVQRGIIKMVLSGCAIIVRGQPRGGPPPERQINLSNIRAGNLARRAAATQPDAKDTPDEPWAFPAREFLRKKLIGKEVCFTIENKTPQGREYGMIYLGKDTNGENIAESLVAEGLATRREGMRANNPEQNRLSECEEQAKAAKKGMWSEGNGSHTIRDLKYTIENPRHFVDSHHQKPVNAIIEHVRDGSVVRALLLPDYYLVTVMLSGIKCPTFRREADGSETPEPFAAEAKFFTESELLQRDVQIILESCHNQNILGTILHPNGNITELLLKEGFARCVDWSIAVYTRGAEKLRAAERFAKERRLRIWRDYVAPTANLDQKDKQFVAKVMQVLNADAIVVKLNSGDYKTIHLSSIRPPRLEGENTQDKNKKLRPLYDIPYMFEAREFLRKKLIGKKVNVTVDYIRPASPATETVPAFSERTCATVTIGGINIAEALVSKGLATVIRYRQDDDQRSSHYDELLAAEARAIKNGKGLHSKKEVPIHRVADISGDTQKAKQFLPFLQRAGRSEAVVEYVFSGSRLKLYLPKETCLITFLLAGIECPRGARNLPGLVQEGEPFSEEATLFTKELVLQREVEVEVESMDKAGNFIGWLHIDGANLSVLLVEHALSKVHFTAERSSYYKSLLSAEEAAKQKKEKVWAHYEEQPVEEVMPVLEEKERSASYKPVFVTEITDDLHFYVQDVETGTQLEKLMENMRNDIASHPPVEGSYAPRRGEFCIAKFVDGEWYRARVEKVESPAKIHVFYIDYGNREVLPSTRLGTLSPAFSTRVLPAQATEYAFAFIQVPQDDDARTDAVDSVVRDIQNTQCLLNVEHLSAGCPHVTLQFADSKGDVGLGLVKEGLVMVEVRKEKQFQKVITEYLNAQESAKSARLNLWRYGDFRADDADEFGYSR

[2] = target: T2, HA-SND1, full-length human, wild type (human, UniProt Q7KZF4 1-910); assay: cell-based or functional assay
T2 sequence: T1 sequence with E255R

B1: Myc-MTDH, full-length human, wild type (other)
chain: MAARSWQDELAQQAEEGSARLREMLSVGLGFLRTELGLDLGLEPKRYPGWVILVGTGALGLLLLFLLGYGWAAACAGSRKKRRSPPRKREEAAAVPAAAPDDLALLKNLRSEEQKKKNRKKLSEKPKPNGRTVEVAEGEAVRTPQSVTAKQPPEIDKKNEKSKKNKKKSKSDAKAVQNSSRHDGKEVDEGAWETKISHREKRQQRKRDKVLTDSGSLDSTIPGIENTITVTTEQLTTASFPVGSKKNKGDSHLNVQVSNFKSGKGDSTLQVSSGLNENLTVNGGGWNEKSVKLSSQISAGEEKWNSVSPASAGKRKAEPSAWSQDTGDANTNGKDWGRSWSDRSIFSGIGSTAEPVSQSTTSDYQWDVSRNQPYIDDEWSGLNGLSSADPNSDWNAPAEEWGNWVDEERASLLKSQEPIPDDQKVSDDDKEKGEGALPTGKSKKKKKKKKKQGEDNSTAQDTEELEKEIREDLPVNTSKTRPKQEKAFSLKTISTSDPAEVLVKNSQPIKTLPPATSTEPSVILSKSDSDKSSSQVPPILQETDKSKSNTKQNSVPPSQTKSETSWESPKQIKKKKKARRET
notes: Full-length, Myc-tagged; Expressed in HEK293T cells, tested in lysate; also called Myc-tagged MTDH; WT Myc-MTDH
**Q.** Does B1 bind [1]?
**A.** no binding

**Q.** What about the “half-life of HA-SND1 in HEK293T cells at 45° C (heat shock)” value [2] of the same binder?
**A.** > 3 h
